Measured values taken from the Immune Epitope Database (IEDB).

Experiments:
HLA-B*07:02 [1] = assay: IEDB peptide-MHC binding, purified MHC/competitive/fluorescence; ≥ and ≤ were set here for values at or beyond the usual limits of such assays; conditions: source organism: Zaire ebolavirus
HLA-C*06:02 = assay: IEDB peptide-MHC binding, purified MHC/direct/fluorescence; filed as Kd, often an IC50 or EC50 that approximates it; ≥ and ≤ were set here for values at or beyond the usual limits of such assays
HLA-B*35:01 = assay: IEDB peptide-MHC binding, purified MHC/competitive/fluorescence; filed as Kd, often an IC50 or EC50 that approximates it; ≥ and ≤ were set here for values at or beyond the usual limits of such assays
HLA-B*15:01 [2] = assay: as above
HLA-C*14:02 = assay: IEDB peptide-MHC binding, purified MHC/direct/fluorescence; filed as Kd, often an IC50 or EC50 that approximates it; ≥ and ≤ were set here for values at or beyond the usual limits of such assays
HLA-A*11:01 = assay: as above
HLA-A*03:01 = assay: as above
HLA-A*02:11 = assay: as above
HLA-B*07:02 [3] = assay: as above
HLA-A*01:01 [4] = assay: as above
HLA-B*27:05 = assay: as above
HLA-B*58:01 = assay: as above
HLA-B*44:02 = assay: as above
HLA-C*12:03 = assay: as above
HLA-B*08:01 = assay: as above
HLA-A*24:02 = assay: as above; conditions: source organism: Influenza A virus (A/duck/Mongolia/47/2001(H7N1))
HLA-B*18:01 = assay: as above
HLA-B*40:01 = assay: as above
HLA-B*15:01 [5] = assay: as above
HLA-B*46:01 [6] = assay: IEDB peptide-MHC binding, purified MHC/competitive/fluorescence; filed as Kd, often an IC50 or EC50 that approximates it; ≥ and ≤ were set here for values at or beyond the usual limits of such assays; conditions: source organism: Influenza A virus (A/swine/Italy/1521/98(H1N2))
HLA-A*24:03 = assay: IEDB peptide-MHC binding, purified MHC/direct/fluorescence; filed as Kd, often an IC50 or EC50 that approximates it; ≥ and ≤ were set here for values at or beyond the usual limits of such assays; conditions: source organism: Vibrio parahaemolyticus
HLA-A*02:01 [7] = assay: as above
HLA-A*69:01 = assay: as above
HLA-A*26:01 [8] = assay: as above; conditions: source organism: Vibrio cholerae
HLA-A*01:01 [9] = assay: IEDB peptide-MHC binding, purified MHC/competitive/fluorescence; filed as Kd, often an IC50 or EC50 that approximates it; ≥ and ≤ were set here for values at or beyond the usual limits of such assays
HLA-A*02:03 = assay: as above; conditions: source organism: Human immunodeficiency virus 1
HLA-A*30:01 = assay: as above; conditions: source organism: Human immunodeficiency virus 1
HLA-B*39:01 = assay: as above
HLA-A*02:06 = assay: as above; conditions: source organism: Human immunodeficiency virus 1
HLA-A*31:01 = assay: IEDB peptide-MHC binding, purified MHC/direct/fluorescence; filed as Kd, often an IC50 or EC50 that approximates it; ≥ and ≤ were set here for values at or beyond the usual limits of such assays
HLA-A*02:19 = assay: IEDB peptide-MHC binding, purified MHC/competitive/fluorescence; filed as Kd, often an IC50 or EC50 that approximates it; ≥ and ≤ were set here for values at or beyond the usual limits of such assays; conditions: source organism: Bacillus licheniformis
HLA-B*57:01 = assay: IEDB peptide-MHC binding, purified MHC/direct/fluorescence; filed as Kd, often an IC50 or EC50 that approximates it; ≥ and ≤ were set here for values at or beyond the usual limits of such assays; conditions: source organism: Orthohantavirus hantanense
HLA-B*48:01 = assay: as above; conditions: source organism: Orthohantavirus hantanense
HLA-A*68:02 = assay: as above; conditions: source organism: Limestone Canyon virus
HLA-A*02:12 [10] = assay: as above; conditions: source organism: Limestone Canyon virus
HLA-B*46:01 [11] = assay: as above; conditions: source organism: Orthohantavirus hantanense
HLA-B*27:03 = assay: IEDB peptide-MHC binding, purified MHC/competitive/fluorescence; filed as Kd, often an IC50 or EC50 that approximates it; ≥ and ≤ were set here for values at or beyond the usual limits of such assays; conditions: source organism: Hantaan virus 76-118
HLA-B*51:01 = assay: as above; conditions: source organism: Hantaan virus 76-118
HLA-A*26:01 [12] = assay: as above; conditions: source organism: Hantaan virus 76-118
HLA-B*15:17 = assay: as above; conditions: source organism: Hantaan virus 76-118
HLA-A*02:01 [13] = assay: as above; conditions: source organism: Vibrio cholerae
HLA-A*02:12 [14] = assay: as above; conditions: source organism: Vibrio cholerae
[15] = source organism: Bacillus cereus G9241
[16] = source organism: Francisella tularensis subsp. tularensis FSC198
[17] = source organism: Francisella tularensis subsp. holarctica LVS
[18] = source organism: Influenza A virus (A/Puerto Rico/8/34/Mount Sinai(H1N1))
[19] = source organism: Influenza A virus (A/duck/Mongolia/47/2001(H7N1))
[20] = source organism: Mycobacterium tuberculosis variant bovis BCG str. Pasteur 1173P2
[21] = source organism: Vibrio cholerae
[22] = source organism: Human immunodeficiency virus 1
[23] = source organism: Bacillus licheniformis
[24] = source organism: Orthohantavirus hantanense
[25] = source organism: Hantaan virus 76-118

Sequence: SPQSLTTKP
- IC50 (HLA-B*07:02 [1]): ≥ 188 µM

Sequence: FVHDSVQYF
- Kd (HLA-C*06:02; [15]): 133 nM
- Kd (HLA-B*35:01; [15]): 0.9 nM
- Kd (HLA-B*15:01 [2]; [15]): 28.9 nM

Sequence: AIYKNTIAY
- Kd (HLA-C*14:02; [16]): 118 nM
- Kd (HLA-A*11:01; [17]): 0.0239 µM
- Kd (HLA-A*03:01; [17]): 0.0069 µM
- Kd (HLA-B*35:01; [16]): 98.6 nM

Sequence: FLKDVMESM
- Kd (HLA-A*02:11; source organism: Influenza A virus H3N2): ≤ 0.001 µM
- Kd (HLA-B*07:02 [3]; [18]): 0.312 µM
- Kd (HLA-A*01:01 [4]; [19]): ≥ 20 µM
- Kd (HLA-B*27:05; [19]): ≥ 20 µM
- Kd (HLA-B*58:01; [19]): ≥ 20 µM
- Kd (HLA-A*11:01; [19]): ≥ 20 µM
- Kd (HLA-B*44:02; [19]): ≥ 20 µM
- Kd (HLA-C*12:03; source organism: Influenza A virus (A/swine/Italy/1521/98(H1N2))): ≤ 1 nM
- Kd (HLA-B*08:01; [18]): 0.158 µM
- Kd (HLA-A*24:02): ≥ 20 µM
- Kd (HLA-B*18:01; [19]): ≥ 20 µM
- Kd (HLA-B*40:01; [19]): ≥ 20 µM
- Kd (HLA-A*03:01; [19]): ≥ 20 µM
- Kd (HLA-B*15:01 [5]; [18]): 220 nM
- Kd (HLA-B*46:01 [6]): 23.9 nM

Sequence: YTWNGTQWV
- Kd (HLA-C*06:02; [20]): 343 nM

Sequence: AYYWNQNGF
- Kd (HLA-C*14:02; source organism: Vibrio cholerae 2740-80): ≤ 1 nM
- Kd (HLA-B*07:02 [3]; [21]): ≥ 20 µM
- Kd (HLA-A*24:03): 2.23 nM
- Kd (HLA-A*01:01 [4]; [21]): ≥ 20 µM
- Kd (HLA-B*27:05; [21]): ≥ 20 µM
- Kd (HLA-A*02:01 [7]; [21]): ≥ 20 µM
- Kd (HLA-B*58:01; [21]): ≥ 20 µM
- Kd (HLA-A*11:01; source organism: Vibrio parahaemolyticus): ≥ 20 µM
- Kd (HLA-B*44:02; [21]): ≥ 20 µM
- Kd (HLA-B*08:01; [21]): ≥ 20 µM
- Kd (HLA-A*69:01; [21]): ≥ 20 µM
- Kd (HLA-B*40:01; [21]): ≥ 20 µM
- Kd (HLA-A*03:01; [21]): ≥ 20 µM
- Kd (HLA-A*26:01 [8]): ≥ 20 µM

Sequence: KSVFNSLY
- Kd (HLA-A*01:01 [9]; source organism: Influenza A virus (A/X-31(H3N2))): 1470 nM

Sequence: LSTASSWSY
- Kd (HLA-A*01:01 [9]; source organism: Influenza A virus (A/swine/Ohio/24366/2007(H1N1))): 261 nM

Sequence: YAKFARITL
- Kd (HLA-C*12:03; [20]): ≤ 1 nM

Sequence: EKLKSLFNTV
- Kd (HLA-A*02:03): ≥ 20 µM
- Kd (HLA-A*30:01): 1140 nM
- Kd (HLA-B*39:01; [22]): ≥ 20 µM
- Kd (HLA-B*15:01 [2]; [22]): ≥ 20000 nM
- Kd (HLA-A*02:06): 343 nM

Sequence: RLIWSHHHI
- Kd (HLA-B*07:02 [3]; [23]): 12 µM
- Kd (HLA-A*02:01 [7]; [23]): 1.21 µM
- Kd (HLA-B*58:01; [23]): 0.0247 µM
- Kd (HLA-A*31:01; [23]): 462 nM
- Kd (HLA-A*69:01; [23]): 1.26 µM
- Kd (HLA-B*15:01 [5]; [23]): 296 nM
- Kd (HLA-A*02:19): 87.9 nM

Sequence: IRKPKHLYV
- Kd (HLA-A*02:11; source organism: Limestone Canyon virus): ≥ 20 µM
- Kd (HLA-B*57:01): ≥ 20 µM
- Kd (HLA-B*07:02 [3]; [24]): ≥ 20 µM
- Kd (HLA-B*48:01): ≥ 20 µM
- Kd (HLA-A*01:01 [4]; [24]): ≥ 20 µM
- Kd (HLA-B*27:05; [24]): ≥ 20 µM
- Kd (HLA-A*02:01 [7]; [24]): ≥ 20 µM
- Kd (HLA-B*58:01; [24]): ≥ 20 µM
- Kd (HLA-A*31:01; [24]): ≥ 20000 nM
- Kd (HLA-A*11:01; [24]): ≥ 20 µM
- Kd (HLA-A*68:02): ≥ 20 µM
- Kd (HLA-B*44:02; [24]): ≥ 20 µM
- Kd (HLA-A*02:12 [10]): ≥ 20 µM
- Kd (HLA-B*08:01; source organism: Hantavirus CRF367): 14 µM
- Kd (HLA-A*69:01; [24]): ≥ 20 µM
- Kd (HLA-B*46:01 [11]): ≥ 20 µM
- Kd (HLA-B*18:01; [24]): ≥ 20 µM
- Kd (HLA-B*40:01; [24]): ≥ 20 µM
- Kd (HLA-C*06:02; [25]): 31 nM
- Kd (HLA-A*03:01; [24]): ≥ 20 µM
- Kd (HLA-B*15:01 [5]; [24]): ≥ 20000 nM
- Kd (HLA-B*27:03): ≥ 20 µM
- Kd (HLA-B*39:01; [25]): ≥ 20 µM
- Kd (HLA-B*51:01): ≥ 20 µM
- Kd (HLA-A*26:01 [12]): ≥ 20 µM
- Kd (HLA-B*15:17): ≥ 20 µM

Sequence: NLNFDQAAL
- Kd (HLA-A*02:01 [13]): 96.7 nM
- Kd (HLA-A*02:12 [14]): 82.8 nM
